Laboratory results taken from publication PMC10866396 (Molecular cancer therapeutics, 2023).

Biological target: Avi-tagged-eIF4E (human, UniProt P06730 1-217, biotin (co-transfected bacterial biotin ligase BirA; loaded on streptavidin tips))
Test: BLI

Avi-tagged-eIF4E, sequence (P06730 whole entry): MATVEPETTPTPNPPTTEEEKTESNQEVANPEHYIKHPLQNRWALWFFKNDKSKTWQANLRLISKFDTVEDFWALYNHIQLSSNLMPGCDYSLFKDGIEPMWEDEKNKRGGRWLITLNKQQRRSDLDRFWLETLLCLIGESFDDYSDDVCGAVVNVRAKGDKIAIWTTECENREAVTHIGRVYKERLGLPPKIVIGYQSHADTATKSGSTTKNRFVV

YPYAASPA [Pep8 peptide]
Kd: 25 µM
